These results are taken from publication PMC4694755.

What is called koff is a measure of how fast the partners let go of each other. Read a high koff as fast dissociation. As usually defined, the kon is the second-order rate constant of association. Low values mean slower complex formation, high ones faster complex formation.

The target of the assay is Mouse importin β (mouse) (UniProt P70168). In words: SPR. On the technique in general: Surface plasmon resonance follows binding to a sensor surface in real time, without labels.
Sequence of Mouse importin β (mouse) (P70168 whole entry): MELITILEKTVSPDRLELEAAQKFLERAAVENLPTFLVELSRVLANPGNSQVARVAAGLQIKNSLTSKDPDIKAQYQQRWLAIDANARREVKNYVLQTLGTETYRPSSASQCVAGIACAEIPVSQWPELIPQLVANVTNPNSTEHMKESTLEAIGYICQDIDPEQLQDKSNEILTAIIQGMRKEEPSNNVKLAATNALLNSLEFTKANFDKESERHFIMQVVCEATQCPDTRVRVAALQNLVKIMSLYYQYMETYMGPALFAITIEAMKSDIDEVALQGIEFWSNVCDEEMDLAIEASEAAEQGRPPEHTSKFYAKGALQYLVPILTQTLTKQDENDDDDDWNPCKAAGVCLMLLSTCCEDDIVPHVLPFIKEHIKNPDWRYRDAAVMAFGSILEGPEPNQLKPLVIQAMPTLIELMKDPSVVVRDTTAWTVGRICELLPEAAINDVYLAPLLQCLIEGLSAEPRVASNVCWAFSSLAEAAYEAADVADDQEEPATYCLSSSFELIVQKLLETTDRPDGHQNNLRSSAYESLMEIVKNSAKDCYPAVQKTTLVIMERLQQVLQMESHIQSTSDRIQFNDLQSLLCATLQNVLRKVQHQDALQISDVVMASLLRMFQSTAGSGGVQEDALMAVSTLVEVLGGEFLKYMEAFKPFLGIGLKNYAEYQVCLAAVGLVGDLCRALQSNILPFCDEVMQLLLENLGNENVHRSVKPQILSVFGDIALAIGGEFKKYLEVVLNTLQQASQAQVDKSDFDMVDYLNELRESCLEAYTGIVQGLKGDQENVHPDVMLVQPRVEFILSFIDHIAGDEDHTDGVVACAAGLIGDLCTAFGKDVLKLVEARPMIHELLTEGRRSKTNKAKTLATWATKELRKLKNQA

In the case of “human RanGTP (from UniProt P62826 1-216) (natural protein; other documents disagree on this pair)”, the koff was 0.00107 s⁻¹ and the kon turned out to be 44400 M⁻¹ s⁻¹.
